Laboratory results: patent publication US20200283521A1 (GRANULAR THERAPEUTICS, published 2020)

B1: MH5.3 (antibody, IgG1, V domains shown)
VH: QVQLVQSGAEVKKPGASVKVSCKASGYTFTDHYMNWVRQAPGQGLEWMGRIYPGTGNTYYAQKFQGRVTMTRDTSTSTVYMELSSLRSEDTAVYYCARGVWYYDYWGQGTLVTVSS
VL: DIQMTQSPSSLSASVGDRVTITCRASQGIRTNLAWFQQKPGKAPKSLIYAASSLQSGVPSRFSGSGSGTDFTLTISSLQPEDFATYYCQQYANYPRTFGGGTKVEIK
notes: IgG1
B2: MH5.25 (antibody, IgG1, V domains shown)
VH: QVQLVQSGAEVKKPGASVKVSCKASGYTFTDFYMNWVRQAPGQGLEWMGRIYPASGNTYYAQKFQGRVTMTRDTSTSTVYMELSSLRSEDTAVYYCARGVWYFDEWGQGTLVTVSS
VL: DIQMTQSPSSLSASVGDRVTITCRASQGIRTNLAWFQQKPGKAPKSLIYAASSLQSGVPSRFSGSGSGTDFTLTISSLQPEDFATYYCQQYANYPRTFGGGTKVEIK
notes: IgG1
B3: MH5.14 (antibody, IgG1, V domains shown)
VH: QVQLVQSGAEVKKPGASVKVSCKASGYTFTDHYMNWVRQAPGQGLEWMGRIYPASGNTYYAQKFQGRVTMTRDTSTSTVYMELSSLRSEDTAVYYCARGVWYFDEWGQGTLVTVSS
VL: DIQMTQSPSSLSASVGDRVTITCRASQGIRTNLAWFQQKPGKAPKSLIYAASSLQSGVPSRFSGSGSGTDFTLTISSLQPEDFATYYCQQYANYPRTFGGGTKVEIK
notes: IgG1
B4: MH5.13 (antibody, IgG1, V domains shown)
VH: QVQLVQSGAEVKKPGASVKVSCKASGYTFTDHYMNWVRQAPGQGLEWMGRIYPASGNTYYAQKFQGRVTMTRDTSTSTVYMELSSLRSEDTAVYYCARGVWYFDTWGQGTLVTVSS
VL: DIQMTQSPSSLSASVGDRVTITCRASQGIRTNLAWFQQKPGKAPKSLIYAASSLQSGVPSRFSGSGSGTDFTLTISSLQPEDFATYYCQQYANYPRTFGGGTKVEIK
notes: IgG1
B5: MH5.17 (antibody, IgG1, V domains shown)
VH: QVQLVQSGAEVKKPGASVKVSCKASGYTFTDFYMNWVRQAPGQGLEWMGRIYPGTGNTYYAQKFQGRVTMTRDTSTSTVYMELSSLRSEDTAVYYCARGVWYFDEWGQGTLVTVSS
VL: DIQMTQSPSSLSASVGDRVTITCRASQGIRTNLAWFQQKPGKAPKSLIYAASSLQSGVPSRFSGSGSGTDFTLTISSLQPEDFATYYCQQYANYPRTFGGGTKVEIK
notes: IgG1
B6: MH5.26 (antibody, IgG1, V domains shown)
VH: QVQLVQSGAEVKKPGASVKVSCKASGYTFTNYYMNWVRQAPGQGLEWMGRIYPGTGNTYYAQKFQGRVTMTRDTSTSTVYMELSSLRSEDTAVYYCARGVWYFDSWGQGTLVTVSS
VL: DIQMTQSPSSLSASVGDRVTITCRASQGIRTNLAWFQQKPGKAPKSLIYAASSLQSGVPSRFSGSGSGTDFTLTISSLQPEDFATYYCQQYANYPRTFGGGTKVEIK
notes: IgG1
B7: MH5.31 (antibody, IgG1, V domains shown)
VH: QVQLVQSGAEVKKPGASVKVSCKASGYTFTNYYMNWVRQAPGQGLEWMGRIYPGAGNTYYAQKFQGRVTMTRDTSTSTVYMELSSLRSEDTAVYYCARGVWYFDTWGQGTLVTVSS
VL: DIQMTQSPSSLSASVGDRVTITCRASQGIRTNLAWFQQKPGKAPKSLIYAASSLQSGVPSRFSGSGSGTDFTLTISSLQPEDFATYYCQQYANYPRTFGGGTKVEIK
notes: IgG1
B8: MH5.12 (antibody, IgG1, V domains shown)
VH: QVQLVQSGAEVKKPGASVKVSCKASGYTFTDHYMNWVRQAPGQGLEWMGRIYPASGNTYYAQKFQGRVTMTRDTSTSTVYMELSSLRSEDTAVYYCARGVWYFDSWGQGTLVTVSS
VL: DIQMTQSPSSLSASVGDRVTITCRASQGIRTNLAWFQQKPGKAPKSLIYAASSLQSGVPSRFSGSGSGTDFTLTISSLQPEDFATYYCQQYANYPRTFGGGTKVEIK
notes: IgG1
B9: MH5.8 (antibody, IgG1, V domains shown)
VH: QVQLVQSGAEVKKPGASVKVSCKASGYTFTDHYMNWVRQAPGQGLEWMGRIYPGAGNTYYAQKFQGRVTMTRDTSTSTVYMELSSLRSEDTAVYYCARGVWYFDSWGQGTLVTVSS
VL: DIQMTQSPSSLSASVGDRVTITCRASQGIRTNLAWFQQKPGKAPKSLIYAASSLQSGVPSRFSGSGSGTDFTLTISSLQPEDFATYYCQQYANYPRTFGGGTKVEIK
notes: IgG1
B10: MH5.9 (antibody, IgG1, V domains shown)
VH: QVQLVQSGAEVKKPGASVKVSCKASGYTFTDHYMNWVRQAPGQGLEWMGRIYPGAGNTYYAQKFQGRVTMTRDTSTSTVYMELSSLRSEDTAVYYCARGVWYFDTWGQGTLVTVSS
VL: DIQMTQSPSSLSASVGDRVTITCRASQGIRTNLAWFQQKPGKAPKSLIYAASSLQSGVPSRFSGSGSGTDFTLTISSLQPEDFATYYCQQYANYPRTFGGGTKVEIK
notes: IgG1
B11: MH5.29 (antibody, IgG1, V domains shown)
VH: QVQLVQSGAEVKKPGASVKVSCKASGYTFTNYYMNWVRQAPGQGLEWMGRIYPGAGNTYYAQKFQGRVTMTRDTSTSTVYMELSSLRSEDTAVYYCARGVWYYDYWGQGTLVTVSS
VL: DIQMTQSPSSLSASVGDRVTITCRASQGIRTNLAWFQQKPGKAPKSLIYAASSLQSGVPSRFSGSGSGTDFTLTISSLQPEDFATYYCQQYANYPRTFGGGTKVEIK
notes: IgG1
B12: MH5.21 (antibody, IgG1, V domains shown)
VH: QVQLVQSGAEVKKPGASVKVSCKASGYTFTDFYMNWVRQAPGQGLEWMGRIYPGAGNTYYAQKFQGRVTMTRDTSTSTVYMELSSLRSEDTAVYYCARGVWYFDEWGQGTLVTVSS
VL: DIQMTQSPSSLSASVGDRVTITCRASQGIRTNLAWFQQKPGKAPKSLIYAASSLQSGVPSRFSGSGSGTDFTLTISSLQPEDFATYYCQQYANYPRTFGGGTKVEIK
notes: IgG1
B13: MH5.7 (antibody, IgG1, V domains shown)
VH: QVQLVQSGAEVKKPGASVKVSCKASGYTFTDHYMNWVRQAPGQGLEWMGRIYPGAGNTYYAQKFQGRVTMTRDTSTSTVYMELSSLRSEDTAVYYCARGVWYYDYWGQGTLVTVSS
VL: DIQMTQSPSSLSASVGDRVTITCRASQGIRTNLAWFQQKPGKAPKSLIYAASSLQSGVPSRFSGSGSGTDFTLTISSLQPEDFATYYCQQYANYPRTFGGGTKVEIK
notes: IgG1
B14: MH5.16 (antibody, IgG1, V domains shown)
VH: QVQLVQSGAEVKKPGASVKVSCKASGYTFTDFYMNWVRQAPGQGLEWMGRIYPGTGNTYYAQKFQGRVTMTRDTSTSTVYMELSSLRSEDTAVYYCARGVWYFDTWGQGTLVTVSS
VL: DIQMTQSPSSLSASVGDRVTITCRASQGIRTNLAWFQQKPGKAPKSLIYAASSLQSGVPSRFSGSGSGTDFTLTISSLQPEDFATYYCQQYANYPRTFGGGTKVEIK
notes: IgG1
B15: MH5.5 (antibody, IgG1, V domains shown)
VH: QVQLVQSGAEVKKPGASVKVSCKASGYTFTDHYMNWVRQAPGQGLEWMGRIYPGTGNTYYAQKFQGRVTMTRDTSTSTVYMELSSLRSEDTAVYYCARGVWYFDTWGQGTLVTVSS
VL: DIQMTQSPSSLSASVGDRVTITCRASQGIRTNLAWFQQKPGKAPKSLIYAASSLQSGVPSRFSGSGSGTDFTLTISSLQPEDFATYYCQQYANYPRTFGGGTKVEIK
notes: IgG1
B16: MH5.11 (antibody, IgG1, V domains shown)
VH: QVQLVQSGAEVKKPGASVKVSCKASGYTFTDHYMNWVRQAPGQGLEWMGRIYPASGNTYYAQKFQGRVTMTRDTSTSTVYMELSSLRSEDTAVYYCARGVWYYDYWGQGTLVTVSS
VL: DIQMTQSPSSLSASVGDRVTITCRASQGIRTNLAWFQQKPGKAPKSLIYAASSLQSGVPSRFSGSGSGTDFTLTISSLQPEDFATYYCQQYANYPRTFGGGTKVEIK
notes: IgG1
B17: MH5.18 (antibody, IgG1, V domains shown)
VH: QVQLVQSGAEVKKPGASVKVSCKASGYTFTDFYMNWVRQAPGQGLEWMGRIYPGAGNTYYAQKFQGRVTMTRDTSTSTVYMELSSLRSEDTAVYYCARGVWYYDYWGQGTLVTVSS
VL: DIQMTQSPSSLSASVGDRVTITCRASQGIRTNLAWFQQKPGKAPKSLIYAASSLQSGVPSRFSGSGSGTDFTLTISSLQPEDFATYYCQQYANYPRTFGGGTKVEIK
notes: IgG1
B18: MH5.28 (antibody, IgG1, V domains shown)
VH: QVQLVQSGAEVKKPGASVKVSCKASGYTFTNYYMNWVRQAPGQGLEWMGRIYPGTGNTYYAQKFQGRVTMTRDTSTSTVYMELSSLRSEDTAVYYCARGVWYFDEWGQGTLVTVSS
VL: DIQMTQSPSSLSASVGDRVTITCRASQGIRTNLAWFQQKPGKAPKSLIYAASSLQSGVPSRFSGSGSGTDFTLTISSLQPEDFATYYCQQYANYPRTFGGGTKVEIK
notes: IgG1
B19: MH5.27 (antibody, IgG1, V domains shown)
VH: QVQLVQSGAEVKKPGASVKVSCKASGYTFTNYYMNWVRQAPGQGLEWMGRIYPGTGNTYYAQKFQGRVTMTRDTSTSTVYMELSSLRSEDTAVYYCARGVWYFDTWGQGTLVTVSS
VL: DIQMTQSPSSLSASVGDRVTITCRASQGIRTNLAWFQQKPGKAPKSLIYAASSLQSGVPSRFSGSGSGTDFTLTISSLQPEDFATYYCQQYANYPRTFGGGTKVEIK
notes: IgG1
B20: MH5.30 (antibody, IgG1, V domains shown)
VH: QVQLVQSGAEVKKPGASVKVSCKASGYTFTNYYMNWVRQAPGQGLEWMGRIYPGAGNTYYAQKFQGRVTMTRDTSTSTVYMELSSLRSEDTAVYYCARGVWYFDSWGQGTLVTVSS
VL: DIQMTQSPSSLSASVGDRVTITCRASQGIRTNLAWFQQKPGKAPKSLIYAASSLQSGVPSRFSGSGSGTDFTLTISSLQPEDFATYYCQQYANYPRTFGGGTKVEIK
notes: IgG1
B21: MH5.20 (antibody, IgG1, V domains shown)
VH: QVQLVQSGAEVKKPGASVKVSCKASGYTFTDFYMNWVRQAPGQGLEWMGRIYPGAGNTYYAQKFQGRVTMTRDTSTSTVYMELSSLRSEDTAVYYCARGVWYFDTWGQGTLVTVSS
VL: DIQMTQSPSSLSASVGDRVTITCRASQGIRTNLAWFQQKPGKAPKSLIYAASSLQSGVPSRFSGSGSGTDFTLTISSLQPEDFATYYCQQYANYPRTFGGGTKVEIK
notes: IgG1
B22: MH5.19 (antibody, IgG1, V domains shown)
VH: QVQLVQSGAEVKKPGASVKVSCKASGYTFTDFYMNWVRQAPGQGLEWMGRIYPGAGNTYYAQKFQGRVTMTRDTSTSTVYMELSSLRSEDTAVYYCARGVWYFDSWGQGTLVTVSS
VL: DIQMTQSPSSLSASVGDRVTITCRASQGIRTNLAWFQQKPGKAPKSLIYAASSLQSGVPSRFSGSGSGTDFTLTISSLQPEDFATYYCQQYANYPRTFGGGTKVEIK
notes: IgG1

biological target: T1, human C-KIT-Fc (human, UniProt P10721 26-524); assay: direct ELISA;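 further: Plate-coated C-KIT-Fc (1 µg/ml) probed with antibodies for 1 hr, bound IgG detected via anti-human kappa-HRP and TMB, absorbance measured at 450 nm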
T1 construct: also called biotinylated human C-KIT-Fc; not shown: Fc part not described

Binding result, binds:
B1, B2, B3, B4, B5, B6, B7, B8, B9, B10, B11, B12, B13, B14, B15, B16, B17, B18, B19, B20, B21, B22
